Source: US20100239571A1 (Seagen, published 2010)
Substitutions are numbered along the chain they refer to.

B1: cAC10 (CHO) (antibody, V domains shown)
VH: QVQLVQSGAEVVKPGASVKVSCKASGYTFTDYYITWVRQAPGQGLEWMGWIYPGSGNTKYNEKFKGKATLTVDTSSSTAFMQLSSLTSEDTAVYFCANYGNYWFAYWGQGTQVTVSA
VL: DIVLTQSPASLAVSLGQRATISCKASQSVDFDGDSYMNWYQQKPGQPPKVLIYAASNLESGIPARFSGSGSGTDFTLNIHPVEEEDAATYYCQQSNEDPWTFGGGTKLEIK
notes: Human-murine chimeric AC10 expressed in CHO cells; also called chimeric AC10; chimeric monoclonal antibody AC10
B2: hAC10 HALA (antibody, human IgG1, kappa, V domains shown)
VH: QVQLVQSGAEVKKPGASVKVSCKASGYTFTDYYITWVRQAPGQGLEWMGWIYPGSGNTKYNEKFKGRVTMTVDTSISTAYMELSRLRSDDTAVYFCANYGNYWFAYWGQGTLVTVSS
VL: DIVMTQSPDSLAVSLGERATINCKASQSVDFDGDSYMNWYQQKPGQPPKLLIYAASNLESGVPDRFSGSGSGTDFTLTISSLQAEDVAVYYCQQSNEDPWTFGQGTKVEIKR
notes: The name HALA is read as heavy variant A plus light variant A; also called humanized AC10 variant HALA; hVH A + hVL A
B3: hAC10 HALC (antibody, human IgG1, kappa, V domains shown)
VH: B2 VH
VL: B2 VL with M37L
notes: Human IgG1 / kappa; also called humanized AC10 variant HALC; hVH A + hVL C
B4: hAC10 HDLD (antibody, human IgG1, kappa, V domains shown)
VH: B2 VH with V72R, F95Y
VL: B2 VL with A25S, M37L
notes: Human IgG1 / kappa; also called humanized AC10 variant HDLD; hVH D + hVL D
B5: hAC10 HALD (antibody, human IgG1, kappa, V domains shown)
VH: B2 VH
VL: B2 VL with A25S, M37L
notes: Human IgG1 / kappa; also called humanized AC10 variant HALD; hVH A + hVL D
B6: hAC10 HCLA (antibody, human IgG1, kappa, V domains shown)
VH: B2 VH with F95Y
VL: B2 VL
notes: Human IgG1 / kappa; also called humanized AC10 variant HCLA; hVH C + hVL A
B7: hAC10 HBLA (antibody, human IgG1, kappa, V domains shown)
VH: B2 VH with V72R
VL: B2 VL
notes: Human IgG1 / kappa; also called humanized AC10 variant HBLA; hVH B + hVL A
B8: hAC10 HDLA (antibody, human IgG1, kappa, V domains shown)
VH: B2 VH with V72R, F95Y
VL: B2 VL
notes: Human IgG1 / kappa; also called humanized AC10 variant HDLA; antibody HDLA
B9: hAC10 HALB (antibody, human IgG1, kappa, V domains shown)
VH: B2 VH
VL: B2 VL with A25S
notes: Human IgG1 / kappa; also called humanized AC10 variant HALB; hVH A + hVL B

Assays:
[1] = biological target: T1, CD30 surface antigen expressed on Karpas-299 (human, UniProt P28908 19-595); experiment: competition binding on Karpas 299 cells against europium-labeled cAC10 (control competitor)
T1 construct: whole, on cells; also called human CD30
T1 sequence (looked up): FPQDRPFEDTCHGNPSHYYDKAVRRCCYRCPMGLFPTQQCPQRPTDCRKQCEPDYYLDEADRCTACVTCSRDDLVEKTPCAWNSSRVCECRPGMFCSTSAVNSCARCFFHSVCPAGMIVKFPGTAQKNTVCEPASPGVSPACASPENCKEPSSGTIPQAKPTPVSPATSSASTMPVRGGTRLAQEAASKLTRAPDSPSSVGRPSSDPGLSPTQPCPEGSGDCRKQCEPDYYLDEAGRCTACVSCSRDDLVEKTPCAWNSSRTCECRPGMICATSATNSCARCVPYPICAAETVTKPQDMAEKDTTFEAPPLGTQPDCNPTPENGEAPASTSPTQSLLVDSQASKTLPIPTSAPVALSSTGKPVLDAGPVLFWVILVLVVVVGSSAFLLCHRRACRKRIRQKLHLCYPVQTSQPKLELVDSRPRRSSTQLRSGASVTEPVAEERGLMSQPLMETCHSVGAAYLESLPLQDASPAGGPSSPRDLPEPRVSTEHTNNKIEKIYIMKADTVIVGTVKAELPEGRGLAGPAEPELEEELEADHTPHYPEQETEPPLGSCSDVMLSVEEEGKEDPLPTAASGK
Procedure: (§1) The variants were tested for binding to CD30 surface antigen expressed on Karpas-299, an anaplastic large cell lymphoma cell line, using a competition binding assay in which cAC10, expressed in CHO cells, was europium labeled (see, e.g., Law et al., Cancer Research 65:8331-38 (2005)). The results, shown below in the second column of Table 6, indicate that all of the variants were able to compete with cAC10 for binding to CD30. Thus, the variants retained antigen binding activity.

[2] = biological target: T1, CD30 surface antigen expressed on …; experiment: competition binding on Karpas 299 cells against europium-labeled cAC10
Procedure: as §1

Binder | EC50 [1] | EC50 [2]
B1 | 2.9 nM | –
B2 | – | 6.61 nM
B3 | – | 3.53 nM
B4 | – | 2.25 nM
B5 | – | 6 nM
B6 | – | 3.61 nM
B7 | – | 3.31 nM
B8 | – | 3.1 nM
B9 | – | 5.9 nM
